Laboratory results as given in paper doi:10.1101/2024.01.16.575844.

Target: C3b (human) (UniProt P01024)
Experiment: radioligand binding

Chain of UniProt P01024 (P01024 whole entry, looked up): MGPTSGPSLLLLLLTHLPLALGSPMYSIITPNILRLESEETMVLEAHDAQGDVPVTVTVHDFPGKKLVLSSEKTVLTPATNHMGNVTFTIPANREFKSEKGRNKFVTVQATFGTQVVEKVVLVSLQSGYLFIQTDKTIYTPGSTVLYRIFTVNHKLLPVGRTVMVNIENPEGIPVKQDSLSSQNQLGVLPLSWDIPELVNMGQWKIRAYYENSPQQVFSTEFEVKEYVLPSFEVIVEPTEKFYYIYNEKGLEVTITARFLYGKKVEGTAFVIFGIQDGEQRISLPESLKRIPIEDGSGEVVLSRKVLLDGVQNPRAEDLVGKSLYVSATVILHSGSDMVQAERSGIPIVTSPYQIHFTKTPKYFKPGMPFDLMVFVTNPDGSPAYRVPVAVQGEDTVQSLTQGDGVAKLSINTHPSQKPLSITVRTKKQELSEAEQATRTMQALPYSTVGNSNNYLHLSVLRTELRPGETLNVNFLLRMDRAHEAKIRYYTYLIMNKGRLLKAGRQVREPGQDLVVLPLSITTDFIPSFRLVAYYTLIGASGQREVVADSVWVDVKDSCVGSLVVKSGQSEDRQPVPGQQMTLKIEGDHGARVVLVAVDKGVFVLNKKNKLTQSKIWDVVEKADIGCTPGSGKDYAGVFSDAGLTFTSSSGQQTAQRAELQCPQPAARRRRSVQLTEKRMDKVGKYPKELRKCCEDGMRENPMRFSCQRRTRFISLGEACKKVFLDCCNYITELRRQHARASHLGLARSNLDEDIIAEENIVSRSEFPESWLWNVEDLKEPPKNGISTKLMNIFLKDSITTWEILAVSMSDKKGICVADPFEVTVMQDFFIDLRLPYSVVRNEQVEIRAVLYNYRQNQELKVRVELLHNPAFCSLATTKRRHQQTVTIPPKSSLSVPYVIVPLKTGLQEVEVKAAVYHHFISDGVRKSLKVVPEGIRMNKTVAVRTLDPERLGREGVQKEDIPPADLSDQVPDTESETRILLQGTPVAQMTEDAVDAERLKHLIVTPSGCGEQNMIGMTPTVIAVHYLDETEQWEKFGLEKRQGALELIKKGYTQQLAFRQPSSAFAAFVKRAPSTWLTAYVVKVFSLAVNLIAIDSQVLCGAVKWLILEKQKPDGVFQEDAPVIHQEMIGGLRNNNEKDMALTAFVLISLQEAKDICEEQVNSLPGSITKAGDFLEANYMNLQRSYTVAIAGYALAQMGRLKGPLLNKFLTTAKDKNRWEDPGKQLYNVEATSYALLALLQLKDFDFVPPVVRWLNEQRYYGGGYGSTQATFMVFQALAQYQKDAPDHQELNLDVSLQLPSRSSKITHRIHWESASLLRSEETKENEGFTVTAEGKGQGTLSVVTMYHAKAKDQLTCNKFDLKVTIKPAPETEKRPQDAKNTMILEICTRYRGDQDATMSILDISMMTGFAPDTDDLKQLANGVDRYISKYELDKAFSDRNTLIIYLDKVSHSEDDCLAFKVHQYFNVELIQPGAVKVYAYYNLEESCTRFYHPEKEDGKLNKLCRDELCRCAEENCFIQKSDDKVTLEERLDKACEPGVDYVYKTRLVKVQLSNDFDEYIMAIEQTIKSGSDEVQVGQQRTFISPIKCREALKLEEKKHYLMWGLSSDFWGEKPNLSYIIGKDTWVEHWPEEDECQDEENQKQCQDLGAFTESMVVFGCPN

- binding in 5 mM EDTA as percent of that in 0.2 mM Mg2+: 60 to 70%
- percent by which binding in 5 mM Mg2+ exceeds that in 0.02 mM Mg2+: 50%
- percent inhibition of 125I-labelled factor B binding to C3b-thiol Sepharose: 100%
Substance: complement factor B (natural protein)
